B1: caveolin-1 (natural protein, human (endogenous in RPTCs), UniProt Q03135 1-178, looked up)
chain: MSGGKYVDSEGHLYTVPIREQGNIYKPNNKAMADELSEKQVYDAHTKEIDLVNRDPKHLNDDVVKIDFEDVIAEPEGTHSFDGIWKASFTTFTVTKYWFYRLLSALFGIPMALIWGIYFAILSFLHIWAVVPCIKSFLIEIQCISRVYSIYVHTVCDPLFEAVGKIFSNVRINLQKEI
B2: G protein-coupled receptor kinase type 4 (enzyme, human (endogenous in RPTCs), UniProt P32298 1-578, looked up)
chain: MELENIVANSLLLKARQGGYGKKSGRSKKWKEILTLPPVSQCSELRHSIEKDYSSLCDKQPIGRRLFRQFCDTKPTLKRHIEFLDAVAEYEVADDEDRSDCGLSILDRFFNDKLAAPLPEIPPDVVTECRLGLKEENPSKKAFEECTRVAHNYLRGEPFEEYQESSYFSQFLQWKWLERQPVTKNTFRHYRVLGKGGFGEVCACQVRATGKMYACKKLQKKRIKKRKGEAMALNEKRILEKVQSRFVVSLAYAYETKDALCLVLTIMNGGDLKFHIYNLGNPGFDEQRAVFYAAELCCGLEDLQRERIVYRDLKPENILLDDRGHIRISDLGLATEIPEGQRVRGRVGTVGYMAPEVVNNEKYTFSPDWWGLGCLIYEMIQGHSPFKKYKEKVKWEEVDQRIKNDTEEYSEKFSEDAKSICRMLLTKNPSKRLGCRGEGAAGVKQHPVFKDINFRRLEANMLEPPFCPDPHAVYCKDVLDIEQFSVVKGIYLDTADEDFYARFATGCVSIPWQNEMIESGCFKDINKSESEEALPLDLDKNIHTPVSRPNRGFFYRLFRRGGCLTMVPSEKEVEPKQC

Assays:
[1] = biological target: B2; assay: co-IP
caveolin-1 = biological target: B1; assay: co-IP

B1 was tested, and the “decrease of co-immunoprecipitation in uRPTCs relative to nRPTCs” value [1] was 55.6%.

For B2, the “decrease of co-immunoprecipitation in uRPTCs relative to nRPTCs” value (caveolin-1) was 58%.

Source: paper PMC2897144 (Hypertension, 2009)
